The source of these data is US20240173352A1 (published 2024).

Assay in all cases: activation reporter or marker
Test [1] has as its target T1, mH-Y (MiHA-Y) peptide on H-2Db (mouse).
T1 peptide: KCSRNRQYL

The target in test [2] is T2, HA-1(H), minor histocompatibility antigen HA-1 variant H; Rho GTPase activating protein 45 (HMHA1) peptide on … (human).
T2 peptide: VLHDDLLEA

Test [3] addresses T3, HA-1(R), allelic variant of HA-1; Rho GTPase activating protein 45 (HMHA1) peptide on HLA-A*02:01 (human).
T3 peptide: VLRDDLLEA

B1: H-Y TCRalpha P2A TCRbeta Jb2.3L (TCR, V domains shown)
Valpha: AQSVDQPDAHVTLSEGASLELRCSYSYSAAPYLFWYVQYPGQSLQFLLKYITGDTVVKGTKGFEAEFRKSNSSFNLKKSPAHWSDSAKYFCALEGQDQGGSAKLIFGEGTKLTVSS
Vbeta: EAAVTQSPRNKVAVTGGKVTLSCNQTNNHNNMYWYRQDTGHGLRLIHYSYGAGSTEKGDIPDGYKASRPSQENFSLILELATPSQTSVYFCASGDNSAETLYFGPGTRLLVL
On to B1, for which the binding result in test [1] was “recognises”.

B2: KP7 HA-1H TCR (TCR, V domains shown)
Valpha: KNEVEQSPQNLTAQEGEFITINCSYSVGISALHWLQQHPGGGIVSLFMLSSGKKKHGRLIATINIQEKHSSLHITASHPRDSAVYICAVRSVSGAGSYQLTFGKGTKLSVIP
Vbeta: DTGVSQNPRHKITKRGQNVTFRCDPISEHNRLYWYRQTLGQGPEFLTYFQNEAQLEKSRLLSDRFSAERPKGSFSTLEIQRTEQGDSAMYLCASSIDSFNEQFFGPGTRLTVL
Regarding B2, the binding result is on record as “recognises” in test [2] and “no recognition” in test [3].
